Patent US20250026849A1 (ARCELLX, published 2025)

T1: CD123 (Homo sapiens (Human), UniProt P26951 19-305, limits assumed)
T1 construct: also called CD123-Signal
T1 sequence: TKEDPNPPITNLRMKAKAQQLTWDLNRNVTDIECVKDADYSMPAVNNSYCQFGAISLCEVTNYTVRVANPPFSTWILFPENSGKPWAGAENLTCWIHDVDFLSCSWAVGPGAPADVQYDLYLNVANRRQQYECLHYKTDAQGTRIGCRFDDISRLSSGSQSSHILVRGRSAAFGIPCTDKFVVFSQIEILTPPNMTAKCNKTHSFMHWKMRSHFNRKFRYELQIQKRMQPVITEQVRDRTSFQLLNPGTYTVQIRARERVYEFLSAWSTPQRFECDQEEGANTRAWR

B1: D domain SEQ ID NO: 690 (designed binder)
chain: MGSWDEFHQRLAAIGDRLWALGGSEAELAYFEWEIATFEWDLQVYKGKGNPEVEALYFEATAIDEELMAYRHN
B2: D domain SEQ ID NO: 705 (designed binder)
chain: MGSWDEFWDRLDAIEDRLFALGGSEAELADFERVIAWFENDLQEYKGKGNPEVEALDNEADAIRIELHAYRHN
B3: D domain SEQ ID NO: 703 (designed binder)
chain: MGSWYEFDARLDAIEERLYALGGSEAELAAFEFEIAGFEEALQWYKGKGNPEVEALLKEAEAITDELYAYRHN
B4: D domain SEQ ID NO: 701 (designed binder)
chain: MGSWYEFADRLDAIMDRLVALGGSEAELAYFEWEIAAFEEFLQMYKGKGNPEVEALDEEAEAIKDELMAYRHN
B5: D domain SEQ ID NO: 697 (designed binder)
chain: MGSWYEFESRLDAIVDRLWALGGSEAELAEFEYEIAKFEWELQDYKGKGNPEVEALNWEAGAIEFELYAYRHN
B6: D domain SEQ ID NO: 679 (designed binder)
chain: MGSWFEFEERLEAIIYRLWALGGSEAELAMFEESIAWFESDLQQYKGKGNPEVEALEYEAMAISKELKAYRHN
B7: D domain SEQ ID NO: 680 (designed binder)
chain: MGSWAEFDDRLEAIEYRLHALGGSEAELAWFEEGIAGFEHALQSYKGKGNPEVEALETEAGAINEELWAYRHN
B8: D domain SEQ ID NO: 685 (designed binder)
chain: MGSWVEFYNRLDAIENRLWALGGSEAELAFFEELIAQFEFALQDYKGKGNPEVEALEDEADAIWEELMAYRHN
B9: D domain SEQ ID NO: 700 (designed binder)
chain: MGSWEEFDDRLDAIEHRLWALGGSEAELADFEGSIAAFESWLQVYKGKGNPEVEALEAEAEAIADELWAYRHN
B10: D domain SEQ ID NO: 704 (designed binder)
chain: MGSWDEFSERLDAIWGRLEALGGSEAELATFEFHIAEFEHELQYYKGKGNPEVEALQGEAAAIINELYAYRHN
B11: D domain SEQ ID NO: 686 (designed binder)
chain: MGSWEEFYYRLHAIDNRLWALGGSEAELAYFEWHIADFELELQDYKGKGNPEVEALSEEATAIFEELWAYRHN
B12: D domain SEQ ID NO: 706 (designed binder)
chain: MGSWDEFDDRLEAIVDRLFALGGSEAELAMFEFEIAQFEHQLQYYKGKGNPEVEALRDEADAIWIELDAYRHN
B13: D domain SEQ ID NO: 681 (designed binder)
chain: MGSWDEFEERLQAIEYRLWALGGSEAELAWFEEVIAQFEYDLQKYKGKGNPEVEALSTEAQAIQDELWAYRHN
B14: D domain SEQ ID NO: 694 (designed binder)
chain: MGSWYEFFDRLDAIYDRLYALGGSEAELASFEAQIAEFEVELQSYKGKGNPEVEALEWEAWAIDEELYAYRHN
B15: D domain SEQ ID NO: 689 (designed binder)
chain: MGSWEEFEQRLWAIDDRLWALGGSEAELAFFEYEIAEFEMDLQWYKGKGNPEVEALFYEAHAINEELWAYRHN
B16: D domain SEQ ID NO: 693 (designed binder)
chain: MGSWHEFDDRLDAIMSRLDALGGSEAELATFEAEIATFEFVLQLYKGKGNPEVEALLAEAYAIDWELEAYRHN
B17: D domain SEQ ID NO: 692 (designed binder)
chain: MGSWDEFDTRLDAIFSRLYALGGSEAELAMFEGEIAEFEGSLQHYKGKGNPEVEALDFEAHAIDEELWAYRHN
B18: D domain SEQ ID NO: 702 (designed binder)
chain: MGSWNEFWERLDAIEWRLFALGGSEAELAFFELDIAWFEEELQWYKGKGNPEVEALIFEAHAITLELDAYRHN
B19: D domain SEQ ID NO: 682 (designed binder)
chain: MGSWWEFTDRLDAIFDRLWALGGSEAELAAFEESIAIFEQDLQYYKGKGNPEVEALEYEANAIQYELEAYRHN
B20: D domain SEQ ID NO: 687 (designed binder)
chain: MGSWREFHDRLFAIDGRLWALGGSEAELANFEWDIADFEFELQDYKGKGNPEVEALSWEADAIMQELGAYRHN
B21: D domain SEQ ID NO: 688 (designed binder)
chain: MGSWEEFDERLWAISDRLWALGGSEAELAYFEGEIAYFEQNLQTYKGKGNPEVEALQTEALAIDTELWAYRHN
B22: D domain SEQ ID NO: 684 (designed binder)
chain: MGSWVEFFWRLDAIEDRLWALGGSEAELANFEFEIADFEAWLQKYKGKGNPEVEALHSEADAIQLELRAYRHN
B23: D domain SEQ ID NO: 678 (designed binder)
chain: MGSWFEFEERLNAISWRLHALGGSEAELAYFEEDIAWFEDDLQFYKGKGNPEVEALENEAYAIWEELDAYRHN
B24: D domain SEQ ID NO: 708 (designed binder)
chain: MGSWFEFEWRLDAIENRLNALGGSEAELAWFEYHIAAFEDSLQHYKGKGNPEVEALEWEAHAIQSELQAYRHN
B25: D domain SEQ ID NO: 698 (designed binder)
chain: MGSWYEFEDRLDAILYRLLALGGSEAELAWFERDIAFFESELQWYKGKGNPEVEALEWEAMAIDDELFAYRHN
B26: D domain SEQ ID NO: 745 (designed binder)
chain: MGSWIEFEDRLYAIEDRLWALGGSEAELAAFEKEIAAFESELQAYKGKGNPEVEFLRYEAAEIRYWLQAYRHN
B27: D domain SEQ ID NO: 711 (designed binder)
chain: MGSWIEFEVRLDAIWDRLFALGGSEAELAAFEKEIAAFESELQAYKGKGNPEVEYLRDEAADIRQSLQAYRHN
B28: D domain SEQ ID NO: 718 (designed binder)
chain: MGSWVEFYDRLYAIEVRLLALGGSEAELAAFEKEIAAFESELQAYKGKGNPEVEFLRQEAAEIRDWLQAYRHN
B29: D domain SEQ ID NO: 712 (designed binder)
chain: MGSWTEFDRRLDAIWDRLFALGGSEAELAAFEKEIAAFESELQAYKGKGNPEVEWLREEAADIRDYLQAYRHN
B30: D domain SEQ ID NO: 716 (designed binder)
chain: MGSWMEFIDRLDAIEHRLWALGGSEAELAAFEKEIAAFESELQAYKGKGNPEVEFLREEAAEIRMYLQAYRHN
B31: D domain SEQ ID NO: 714 (designed binder)
chain: MGSWEEFHDRLMAIETRLWALGGSEAELAAFEKEIAAFESELQAYKGKGNPEVEWLRYEAADIRDYLQAYRHN
B32: D domain SEQ ID NO: 713 (designed binder)
chain: MGSWTEFDMRLDAIWDRLFALGGSEAELAAFEKEIAAFESELQAYKGKGNPEVEELREEAATIRGVLQAYRHN
B33: D domain SEQ ID NO: 715 (designed binder)
chain: MGSWVEFRDRLDAIETRLWALGGSEAELAAFEKEIAAFESELQAYKGKGNPEVEWLRYEAAEIRMVLQAYRHN
B34: D domain SEQ ID NO: 709 (designed binder)
chain: MGSWYEFDDRLEAIWDRLGALGGSEAELAAFEKEIAAFESELQAYKGKGNPEVEWLRETAADIRAELQAYRHN
B35: D domain SEQ ID NO: 720 (designed binder)
chain: MGSWVEFYDRLDAIEHRLDALGGSEAELAAFEKEIAAFESELQAYKGKGNPEVEWLRDEAAFIRDMLQAYRHN
B36: D domain SEQ ID NO: 717 (designed binder)
chain: MGSWTEFVWRLDAIEWRLEALGGSEAELAAFEKEIAAFESELQAYKGKGNPEVEFLREEAAEIRDWLQAYRHN
B37: D domain SEQ ID NO: 719 (designed binder)
chain: MGSWYEFYDRLDAIEWRLWALGGSEAELAAFEKEIAAFESELQAYKGKGNPEVEWLRDEAAQIRDFLQAYRHN
B38: D domain SEQ ID NO: 696 (designed binder)
chain: MGSWLEFEDRLVAIDHRLFALGGSEAELAEFEEEIALFESYLQDYKGKGNPEVEALNWEADAIHAELYAYRHN
B39: D domain SEQ ID NO: 691 (designed binder)
chain: MGSWVEFEYRLDAISDRLWALGGSEAELAFFENEIASFESDLQFYKGKGNPEVEALMFEAEAIDDELHAYRHN
B40: D domain SEQ ID NO: 695 (designed binder)
chain: MGSWFEFLYRLDAIEDRLWALGGSEAELAEFEQEIAKFESELQSYKGKGNPEVEALEWEAHAIDMELEAYRHN
B41: D domain SEQ ID NO: 699 (designed binder)
chain: MGSWGEFMDRLEAIDYRLWALGGSEAELAWFESDIAEFEQELQMYKGKGNPEVEALWDEAMAIRDELFAYRHN
B42: D domain SEQ ID NO: 683 (designed binder)
chain: MGSWWEFTDRLEAIEDRLWALGGSEAELAHFEDSIAQFEQELQWYKGKGNPEVEALADEADAIESELHAYRHN
B43: D domain SEQ ID NO: 707 (designed binder)
chain: MGSWEEFTIRLGAIYWRLFALGGSEAELANFEWFIAEFEYELQPYKGKGNPEVEALVIEANAIDGELQAYRHN

The binders below were run against T1, CD123 (assay: ELISA, format not described).
Set-up: unit not given here
An ELISA_avg of 3.7 was found for B1 in this work.
An ELISA_avg of 3.9 was found for B2 in this work.
An ELISA_avg of 8.9 was found for B3 in this work.
An ELISA_avg of 3.3 was found for B4 in this work.
An ELISA_avg of 5.1 was found for B5 in this work.
An ELISA_avg of 3.7 was found for B6 in this work.
An ELISA_avg of 5.8 was found for B7 in this work.
An ELISA_avg of 6.9 was found for B8 in this work.
An ELISA_avg of 4 was found for B9 in this work.
An ELISA_avg of 3.2 was found for B10 in this work.
An ELISA_avg of 3 was found for B11 in this work.
An ELISA_avg of 5.6 was found for B12 in this work.
An ELISA_avg of 3.8 was found for B13 in this work.
An ELISA_avg of 4.7 was found for B14 in this work.
An ELISA_avg of 5.7 was found for B15 in this work.
An ELISA_avg of 7.7 was found for B16 in this work.
An ELISA_avg of 4 was found for B17 in this work.
An ELISA_avg of 3 was found for B18 in this work.
An ELISA_avg of 7.5 was found for B19 in this work.
An ELISA_avg of 5.6 was found for B20 in this work.
An ELISA_avg of 6.5 was found for B21 in this work.
An ELISA_avg of 4 was found for B22 in this work.
An ELISA_avg of 13 was found for B23 in this work.
An ELISA_avg of 3.3 was found for B24 in this work.
An ELISA_avg of 4.3 was found for B25 in this work.
An ELISA_avg of 4 was found for B26 in this work.
An ELISA_avg of 4.2 was found for B27 in this work.
An ELISA_avg of 5.8 was found for B28 in this work.
An ELISA_avg of 9.2 was found for B29 in this work.
An ELISA_avg of 4.3 was found for B30 in this work.
An ELISA_avg of 4.3 was found for B31 in this work.
An ELISA_avg of 3.1 was found for B32 in this work.
An ELISA_avg of 4.2 was found for B33 in this work.
An ELISA_avg of 3.3 was found for B34 in this work.
An ELISA_avg of 3.4 was found for B35 in this work.
An ELISA_avg of 4.2 was found for B36 in this work.
An ELISA_avg of 6.2 was found for B37 in this work.
An ELISA_avg of 3.9 was found for B38 in this work.
An ELISA_avg of 6.5 was found for B39 in this work.
An ELISA_avg of 6.6 was found for B40 in this work.
An ELISA_avg of 4.6 was found for B41 in this work.
An ELISA_avg of 16.6 was found for B42 in this work.
An ELISA_avg of 3.3 was found for B43 in this work.
